Data reported in article PMC11796359, “Identification and characterization of the functional tetrameric UDP-glucose pyrophosphorylase from Klebsiella pneumoniae” (mBio, 2024).
Numbering of substitutions follows the chain as printed. Numbers in names are those of the source.

B1: Klebsiella pneumoniae UDP-glucose pyrophosphorylase (galU gene product), wild type (enzyme, UniProt A6TAK9 1-300, looked up)
chain: MAALNSKVRKAVIPVAGLGTRMLPATKAIPKEMLPLVDKPLIQYVVNECIAAGITEIVLVTHSSKNSIENHFDTSFELEAMLEKRVKRQLLEEVQSICPPHVTIMQVRQGLAKGLGHAVLCAHPVVGDEPVAVILPDVILDEYESDLSRDNLAEMISRFDETGASQIMVEPVEDVTAYGVVDCKGESLKPGESVPMVGVVEKPKADVAPSNLAVVGRYVLSADIWPLLAKTPPGAGDEIQLTDAIDMLIEKETVEAYHMKGKSHDCGNKLGYMQAFVEYGIRHKTLGDDFKAWLETAVAK
notes: UDP-glucose pyrophosphorylase (galU gene product) of K. pneumoniae subsp. pneumoniae type strain DSM 30104 (ATCC 13883, NCTC 9633), cloned from genomic DNA; UniProt entry printed for the AlphaFold query; 34.6 kDa with tag; no cleavage of the tag is described; Also made from pETDuet-1 with the same oligomeric state; also called KpUGP; KpUGP wt; not shown: Strep-tagII, N-terminal, kept
B2: KpUGP E32A (enzyme)
chain: B1 chain with E32A
notes: UDP-glucose pyrophosphorylase (galU gene product) of K. pneumoniae DSM 30104; active site mutant of Strep-KpUGP; tag as in m1; the discussion speaks only of the mutant of E32; also called E32 mutant
B3: KpUGP E69A (enzyme)
chain: B1 chain with E69A
notes: UDP-glucose pyrophosphorylase (galU gene product) of K. pneumoniae DSM 30104; mutant of Strep-KpUGP; tag as in m1; no cleavage described
B4: KpUGP E77Q (enzyme)
chain: B1 chain with E77Q
notes: as for B3
B5: KpUGP E69D (enzyme)
chain: B1 chain with E69D
notes: as for B3
B6: KpUGP D38A (enzyme)
chain: B1 chain with D38A
notes: as for B3
B7: KpUGP E77A (enzyme)
chain: B1 chain with E77A
notes: as for B3
B8: KpUGP E238A (enzyme)
chain: B1 chain with E238A
notes: as for B3
B9: KpUGP D38N (enzyme)
chain: B1 chain with D38N
notes: as for B3
B10: KpUGP E238Q (enzyme)
chain: B1 chain with E238Q
notes: as for B3
B11: KpUGP K10R (enzyme)
chain: B1 chain with K10R
notes: as for B3
B12: KpUGP F276H (enzyme)
chain: B1 chain with F276H
notes: as for B3
B13: KpUGP F276A (enzyme)
chain: B1 chain with F276A
notes: as for B3
B14: Klebsiella pneumoniae GalF (galF gene product), wild type (natural protein, UniProt Q48447 1-298, looked up)
chain: MNMANLKAVIPVAGLGMHMLPATKAIPKEMLPIVDKPMIQYIVDEIVAAGIKEIVLVTHSSKNAVENHFDTSYELEALLEQRVKRQLLAEVQAICPPGVTIMNVRQAQPLGLGHSILCARPVVGDNPFVVVLPDIILDGGTADPLRYNLAAMIARFNETGRSQVLAKRMPGDLSEYSVIQTKEPMVAEGQVARIVEFIEKPDEPQTLDSDLMAVGRYVLSADIWAELERTEPGAWGRIQLTDAIAELAKKQSVDAMLMTGESYDCGKKMGYMQAFVTYGMRNLKEGAKFRESIKKLLA
notes: GalF (galF gene product) of K. pneumoniae subsp. pneumoniae type strain DSM 30104 (ATCC 13883, NCTC 9633), cloned from genomic DNA into MCS1 of pETDuet-1; UniProt entry printed for the AlphaFold query; 34.3 kDa with tag; no cleavage of the tag is described; also called KpGalF; KpGalF wt
B15: KpGalF M17T/H18R/S115A/S177G/R237E (natural protein)
chain: B14 chain with M17T, H18R, S115A, S177G, R237E
notes: GalF (galF gene product) of K. pneumoniae DSM 30104; mutant of His-KpGalF; also called KpGalF quintuple mutant; quintuple revertant mutant
B16: KpUGP E238R (enzyme)
chain: B1 chain with E238R
notes: UDP-glucose pyrophosphorylase (galU gene product) of K. pneumoniae DSM 30104; mutant of Strep-KpUGP that mimics R237 of KpGalF; tag as in m1; no cleavage described
B17: KpUGP R108A (enzyme)
chain: B1 chain with R108A
notes: as for B3
B18: KpUGP K27Q (enzyme)
chain: B1 chain with K27Q
notes: UDP-glucose pyrophosphorylase (galU gene product) of K. pneumoniae DSM 30104; mutant of Strep-KpUGP; tag as in m1; no cleavage described; eluted predominantly as dimers
B19: KpUGP K27A (enzyme)
chain: B1 chain with K27A
notes: as for B3
B20: KpUGP D73A (enzyme)
chain: B1 chain with D73A
notes: UDP-glucose pyrophosphorylase (galU gene product) of K. pneumoniae DSM 30104; mutant of Strep-KpUGP; tag as in m1; no cleavage described; dissociates progressively during storage on ice
B21: KpUGP R108K (enzyme)
chain: B1 chain with R108K
notes: UDP-glucose pyrophosphorylase (galU gene product) of K. pneumoniae DSM 30104; mutant of Strep-KpUGP; tag as in m1; no cleavage described; also called R108R (as printed once in the text)
B22: KpUGP K65R (enzyme)
chain: B1 chain with K65R
notes: as for B3
B23: KpUGP D73N (enzyme)
chain: B1 chain with D73N
notes: as for B3
B24: KpUGP K65A (enzyme)
chain: B1 chain with K65A
notes: as for B3
B25: KpUGP K10A (enzyme)
chain: B1 chain with K10A
notes: as for B3

Target: the molecule itself
Assay: not stated; data not shown; KpUGP in HEPES-NaOH (pH 8.0) buffer

Row | Protein | stoichiometry N
1 | B1 | 4

Target: the molecule itself
Assay: SEC; Superdex 200 10/300 GL (KpUGP active site mutants); 50 mM Tris-HCl (pH 8.0), 300 mM NaCl, 10 mM MgCl2

Row | Protein | stoichiometry N
2 | B2 | 2

Target: the molecule itself
Assay: native gel or EMSA; blue native PAGE, 4.5 µg of each protein on a uniform 12% native gel, followed by in-gel activity staining

Row | Protein | stoichiometry N
3 | B3 | 4
4 | B4 | 4
5 | B5 | 4
6 | B6 | 4
7 | B7 | 4
8 | B8 | 4
9 | B9 | 4
10 | B10 | 4
11 | B11 | 4
12 | B12 | 4
13 | B13 | 4

Target: the molecule itself
Assay: SEC; Superose 6 Increase 10/300 GL; 50 mM Tris-HCl (pH 8.0), 300 mM NaCl, 10 mM MgCl2; oligomeric state calculated from elution volumes of proteins of known size

Row | Protein | stoichiometry N
14 | B14 | 1.9
15 | B15 | 1.7
16 | B16 | 3.1

Target: the molecule itself
Assay: as above
Remark: another data set of the same source

Row | Protein | stoichiometry N
17 | B1 | 4.5
18 | B17 | 2.2
19 | B3 | 4.4
20 | B4 | 4.6
21 | B5 | 4.6
22 | B18 | 2.2
23 | B6 | 4.1
24 | B7 | 4.5
25 | B19 | 2.1
26 | B8 | 4.4
27 | B20 | 2.7
28 | B21 | 2.4
29 | B9 | 4.2
30 | B10 | 4.4
31 | B22 | 2.4
32 | B23 | 2.4
33 | B24 | 2
34 | B25 | 3.1
35 | B11 | 4.5
36 | B12 | 4.5
37 | B13 | 4.6
